Molecular target: syntaxin1 (mouse (endogenous in brain synaptosomes)) (UniProt O35526)
Test: co-IP; synaptosomes from wt, ASMko (7 months; also 1 month) or wt+Se mice, equal protein; 150 mM NaCl, 0.5% sodium deoxycholate, 1% NP40; syntaxin1 monoclonal antibody 4 h at 4°C, protein G sepharose beads overnight at 4°C; Western blot for syntaxin1, Munc18, SNAP25 and Vamp2

Chain of UniProt O35526 (O35526 whole entry): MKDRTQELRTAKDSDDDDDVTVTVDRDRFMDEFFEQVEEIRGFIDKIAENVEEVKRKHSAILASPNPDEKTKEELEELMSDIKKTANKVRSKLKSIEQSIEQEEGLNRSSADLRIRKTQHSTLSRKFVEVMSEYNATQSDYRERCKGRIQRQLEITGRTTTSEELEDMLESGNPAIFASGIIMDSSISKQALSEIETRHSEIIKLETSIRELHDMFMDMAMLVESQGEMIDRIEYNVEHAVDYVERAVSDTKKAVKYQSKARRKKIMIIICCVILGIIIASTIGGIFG

- fold change of Munc18 co-precipitated with syntaxin1, ASMko versus wt synaptosomes: 1.9 fold
Substance: Munc18 (from UniProt O08599 1-594) (natural protein)
